Laboratory results as given in doi:10.1101/2022.10.27.514035, “Membrane curvature-generating proteins crucial for autophagosome formation” (bioRxiv, 2022).

Molecular target: T1, S. cerevisiae Atg40, SBP-tagged (S. cerevisiae, UniProt Q99325 1-256)
T1 construct: Atg40, ERphagy receptor of Saccharomyces cerevisiae; 'SBP-tagged full-length sjRop1, scAtg40': full-length is read as holding for both; also called scAtg40; not shown: SBP, C-terminal, kept
T1 sequence (looked up): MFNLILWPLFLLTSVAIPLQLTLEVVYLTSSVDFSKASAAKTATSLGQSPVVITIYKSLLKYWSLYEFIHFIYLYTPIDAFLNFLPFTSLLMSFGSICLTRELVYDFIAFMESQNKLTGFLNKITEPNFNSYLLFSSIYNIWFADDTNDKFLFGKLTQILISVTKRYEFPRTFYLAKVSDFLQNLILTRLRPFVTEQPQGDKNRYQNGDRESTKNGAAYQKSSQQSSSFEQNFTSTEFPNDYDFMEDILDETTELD
Assay: pull-down; SBP-tagged protein held on streptavidin beads, incubated with purified Atg8 for 1 h at 4 °C in 25 mM HEPES/KOH pH 7.4, 150 mM NaCl, 0.05% DDM; eluate on SDS-PAGE, Coomassie blue
Conditions: both partners purified

B1: S. cerevisiae Atg8, His10-tagged (natural protein, UniProt P38182 1-117, looked up)
chain: MKSTFKSEYPFEKRKAESERIADRFKNRIPVICEKAEKSDIPEIDKRKYLVPADLTVGQFVYVIRKRIMLPPEKAIFIFVNDTLPPTAALMSAIYQEHKDKDGFLYVTYSGENTFGR
notes: Atg8, ubiquitin-like autophagy protein of Saccharomyces cerevisiae; also called scAtg8; source: E. coli, purified (Ni-NTA, SEC on Superdex 75)
binding result: binds
